From patent publication US20200347130A1 (JIANGSU HENGRUI MEDICINE, published 2020)

T1: CD96 extracellular region with His tag (CD96-His) (human, UniProt P40200 22-519)
T1 construct: also called CD96-ECD-His; Bio-CD96-His (biotin-labelled form)
T1 sequence: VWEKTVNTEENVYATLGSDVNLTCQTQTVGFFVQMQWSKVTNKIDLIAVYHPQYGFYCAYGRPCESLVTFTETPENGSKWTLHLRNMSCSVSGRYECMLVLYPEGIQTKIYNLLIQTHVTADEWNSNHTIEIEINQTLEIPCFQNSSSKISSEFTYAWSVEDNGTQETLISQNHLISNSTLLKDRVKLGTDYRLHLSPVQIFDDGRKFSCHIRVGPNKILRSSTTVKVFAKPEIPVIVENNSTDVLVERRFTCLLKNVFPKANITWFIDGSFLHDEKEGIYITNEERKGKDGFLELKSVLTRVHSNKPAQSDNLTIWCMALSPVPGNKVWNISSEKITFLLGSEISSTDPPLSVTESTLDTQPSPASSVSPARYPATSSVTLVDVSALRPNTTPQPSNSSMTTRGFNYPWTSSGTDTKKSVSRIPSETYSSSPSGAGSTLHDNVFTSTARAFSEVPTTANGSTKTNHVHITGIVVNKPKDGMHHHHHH

T2: Full-length human CD96 on CHO-S cells (human, UniProt P40200 22-585)
T2 construct: also called CD96-CHOs; hCD96-CHOs
T2 sequence: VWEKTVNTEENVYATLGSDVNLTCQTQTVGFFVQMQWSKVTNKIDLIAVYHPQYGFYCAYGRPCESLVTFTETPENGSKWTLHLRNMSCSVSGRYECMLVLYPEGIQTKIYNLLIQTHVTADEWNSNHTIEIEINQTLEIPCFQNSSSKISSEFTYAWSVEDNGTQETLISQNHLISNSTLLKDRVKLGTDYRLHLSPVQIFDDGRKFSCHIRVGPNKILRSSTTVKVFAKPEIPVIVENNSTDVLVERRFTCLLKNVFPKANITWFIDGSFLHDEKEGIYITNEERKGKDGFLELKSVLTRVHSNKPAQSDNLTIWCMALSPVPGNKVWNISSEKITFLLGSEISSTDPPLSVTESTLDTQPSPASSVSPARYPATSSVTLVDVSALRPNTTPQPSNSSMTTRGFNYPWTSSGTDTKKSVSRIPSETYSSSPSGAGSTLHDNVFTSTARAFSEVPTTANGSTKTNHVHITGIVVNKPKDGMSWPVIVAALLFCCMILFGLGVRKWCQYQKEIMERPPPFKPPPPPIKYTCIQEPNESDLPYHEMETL


Assays:
[1] = target: T1, CD96 extracellular region with His tag …; assay: blocking cell ELISA: antibody premixed with Bio-CD96-His (0.5 ug/mL), binding to fixed CD155-CHO cells
Procedure: CD155-CHO cells (constructed by Shanghai Hengrui) were seeded in 96-well culture plates at a density of 9×10⁴/100 μL/well and cultured overnight. After aspirating the supernatant, the plate was washed once with PBS, 100 μl/well of immunostaining fixation solution (Biyuntian, Cat No. P0098) was added and fixed for one hour at room temperature, and the plate was washed three times with PBS. After discarding the liquid, 250 μl/well of 5% skim milk (BD, Cat No. 232100) blocking solution diluted with PBS was added, and the plate was blocked in an incubator at 37° C. for 2.5 hours. After blocking, the blocking solution was discarded, subsequently, the plate was washed 4 times with PBST buffer (pH 7.4 PBS containing 0.05% tween-20). 50 μl/well of antigen-antibody pre-incubation solution (gradient concentrations of the hybridoma antibody to be tested and CD96-Fc at a final concentration of 0.5 μg/mL were premixed at 37° C. for 30 minutes, or gradient concentrations of humanized antibody samples and Bio-CD96-His at a final concentration of 0.5 μg/mL were premixed at 37° C. for 30 minutes) (Biotin-labeled kit, Dongren Chemical, Cat No. LK03) was added, and the plate was incubated in an incubator at 37° C. for 2 hours. After incubation, the reaction solution in the microtiter plate was discarded, the plate was washed 4 times with PBST, and 50 μl/well of HRP-labeled goat anti-human secondary antibody (Jackson Immuno Research, Cat No. 109-035-003) diluted with sample dilution or HRP-labeled streptavidin diluted with sample dilution (Sigma, Cat No. 52438) was added, followed by incubating at 37° C. for 1 hour. After washing the plate 4 times with PBST, 50 μl/well of TMB chromogenic substrate (KPL, Cat No. 52-00-03) was added, the plate was incubated at room temperature for 10-20 minutes, followed by adding 50 μl/well of 1M H₂SO₄ to stop the reaction. The absorption value was read at 450 nm with a NOVOStar microplate reader, and the EC50 value of the effect of CD96 antibody on blocking the binding between the antigens and CD155-CHO cells was calculated (see FIG. 2 and Table 16).

[2] = target: T1, CD96 extracellular region with His tag …; assay: ELISA, CD96-His coated
Procedure: The binding capacity of the anti-CD96 antibody was tested by ELISA to determine the binding of the antibody to human CD96 protein. The His-tagged CD96 fusion protein was used to coat the microtiter plate, and the intensity of the signal after adding with the antibody was used for evaluating the binding activity of the antibody and CD96. The specific experimental method is as follows:
CD96-His with the sequence of SEQ ID NO: 4 prepared in Embodiment 1 was diluted to a concentration of 2 μg/ml with PBS buffer (Shanghai Yuanpei Biotechnology Co., Ltd. Cat No. B320), pH 7.4, added to a 96-well microtiter plate (Corning, Cat No. CLS3590-100EA) at a volume of 50 μl/well, and placed in an incubator at 37° C. for 2 hours. After discarding the liquid, 250 μl/well of 5% skim milk (BD, Cat No. 232100) blocking solution diluted with PBS was added, and the plate was incubated at 37° C. for 2.5 hours or at 4° C. overnight (16-18 hours) for blocking. After blocking, the blocking solution was discarded, and the plate was washed 4 times with PBST buffer (pH 7.4 PBS containing 0.05% tween-20). 50 μl/well of different concentrations of the antibodies to be tested (hybridoma purification antibody or humanized antibody) diluted with sample dilution was added, and the plate was incubated in an incubator at 37° C. for 1 hour. […] After washing the plate 4 times with PBST, 50 μl/well of TMB chromogenic substrate (KPL, Cat No. 52-00-03) was added, and the plate was incubated at room temperature for 5-15 minutes, followed by adding 50 μl/well of 1M H₂SO₄ to stop the reaction. The absorption value was read at 450 nm with a NOVOStar microplate reader, and the EC50 value of the binding of CD96 antibody to human CD96 was calculated (see Table 13).

[3] = target: T2, Full-length human CD96 on CHO-S cells; assay: cell ELISA, fixed CD96-overexpressing CHO-S cells
Procedure: The binding capacity of the anti-CD96 antibody was tested by binding experiments of the antibody to human CD96 protein overexpressing CHO-S cells. The full-length CD96 plasmid was transfected into CHO-S cells by electrotransfection, and cells were then screened for two weeks under pressure for the detection of the expression of CD96. After the over-expressing cells were fixed at the bottom of the 96-well plate, the density of the signal after adding the antibody was used to judge the binding activity of the antibody to CD96 overexpressing CHO-S cells. The specific experimental method is as follows:
The cells were seeded at a density of 9×10⁴/100 μL/well in a 96-well plate and cultured overnight. After aspirating the supernatant, the plate was washed once with PBS, subsequently, 100 μl/well immunostaining fixation solution (Biyuntian, P0098) was added and fixed for one hour at room temperature, and the plate was washed three times with PBS. Once the liquid was discarded, 250 μl/well of 5% skim milk (BD, 232100) blocking solution diluted with PBS was added, and the plate was blocked in an incubator at 37° C. for 2.5 hours. After blocking, the blocking solution was discarded, the plate was washed 4 times with PBST buffer (pH 7.4 PBS containing 0.05% tween-20), followed by diluting 50 μl/well of different concentrations of the antibodies (hybridoma purification antibody or humanized antibody) to be tested the plate was incubated in an incubator at 37° C. for 2 hours. After incubation, the plate was wash 4 times with PBST. […] After washing the plate 4 times with PBST, 50 μl/well of TMB chromogenic substrate (KPL, Cat No. 52-00-03) was added, the plate was incubated at room temperature for 10-25 min, followed by adding 50 μl/well of 1M H₂SO₄ to stop the reaction. The absorption value was read at 450 nm with a NOVOStar microplate reader, and the EC50 value of the CD96 antibodies to CD96 overexpressing CHO-S cells was calculated (see FIG. 1 and Table 15).

[4] = target: T1, CD96 extracellular region with His tag …; assay: SPR (Biacore), antibody captured, CD96-ECD-His as mobile phase
Description: Protein A biosensor chip was used to capture antibodies to be tested, then CD96 antigen was flowed on the surface of the chip, and real time reaction signal was detected by Biacore to obtain the binding and dissociation curve. After the dissociation of each experimental cycle was completed, the biosensor chip was washed and regenerated with a glycine-hydrochloric acid regeneration solution (pH 1.5).

Row | IC50 [1] [pM] | EC50 [2] [pM] | EC50 [3] [pM] | Kd [4] [pM] | Binder
1 | 96 | 85 | 28 | – | h1719-003 (antibody, V domains shown, also called M719-003) VH: EVTLKESGPVLVKPTETLTLTCTVSGFSLSSYGVSWVRQPPGKGLEWLGVIWGDGNTNYHSVLISRLTISKDTSKSQVVLTLTNMDPVDTATYYCAKNNYYGSRYGYPMDYWGQGTTVTVSS VL: DIQMTQSPSSVSASVGDRVTITCKATQDVGTAVAWYQQKPGKAPKLLIYWASTRHTGVPSRFSGSGSGTDFTLTISSLQPEDFATYYCQQYGSSVLTFGGGTKVEIK
2 | – | 72 | 45 | 9870 | h1722-005 (antibody, V domains shown, Only variable regions are tied to this name) VH: EVQLVQSGAEVKKPGSSVKVSCKASGGTFSDYWMHWVRQAPGQGLEWMGMLHPNSGTTSFNEKFKIRVTITADKSTSTAYMELSSLRSEDTAVYYCARDYSGPFAYWGQGTLVTVSS VL: DIQMTQSPSSLSASVGDRVTITCSASSSVNYIHWYQQKPGKAPKRWIYDTSKLASGVPSRFSGSGSGTDFTLTISSLQPEDFATYYCQQWRSNPLTFGQGTKLEIK
